Tests used:
PSF exRRMs = biological target: T1, PSF exRRMs (human, UniProt P23246 266-484); experiment: EMSA; UV crosslinking: 12 mM Tris pH 7.5, 120 mM NaCl, 3 mM MgCl2, 1 mM ATP, 20 mM phosphocreatine, 0.1 mM EDTA, 12% glycerol, 1.3% PVA, 25 ng/ul yeast tRNA, 20 ng/ul; details: protein: recombinant; tags: 6xHis-FLAG N-term; label: uniform 32P
T1 sequence: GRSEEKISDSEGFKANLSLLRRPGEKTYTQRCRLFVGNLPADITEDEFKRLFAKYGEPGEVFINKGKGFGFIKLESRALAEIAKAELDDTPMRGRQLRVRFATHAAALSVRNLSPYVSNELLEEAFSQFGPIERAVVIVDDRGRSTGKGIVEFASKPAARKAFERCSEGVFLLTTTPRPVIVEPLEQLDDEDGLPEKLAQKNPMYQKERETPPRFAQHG

PSF exRRM2 = biological target: T2, PSF exRRM2 (human, UniProt P23246 366-484); experiment: EMSA; affinity similar to exRRMs; UV crosslinking: 12 mM Tris pH 7.5, 120 mM NaCl, 3 mM MgCl2, 1 mM ATP, 20 mM phosphocreatine, 0.1 mM EDTA, 12% glycerol, 1.3% PVA, 25 ng/ul yeast tRNA, 20 ng/ul; details: protein: recombinant; tags: 6xHis-FLAG N-term; label: uniform 32P
T2 sequence: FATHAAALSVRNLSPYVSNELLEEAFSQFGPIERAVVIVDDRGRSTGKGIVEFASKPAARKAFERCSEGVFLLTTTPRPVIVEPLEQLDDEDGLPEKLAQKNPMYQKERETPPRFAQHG

PSF full-length (PSF-FL) = biological target: T3, PSF full-length (PSF-FL) (human, UniProt P23246 1-707); experiment: UV crosslinking; higher affinity than exRRMs; UV crosslinking: 12 mM Tris pH 7.5, 120 mM NaCl, 3 mM MgCl2, 1 mM ATP, 20 mM phosphocreatine, 0.1 mM EDTA, 12% glycerol, 1.3% PVA, 25 ng/ul yeast tRNA, 20 ng/ul; details: protein: recombinant; tags: 6xHis-FLAG N-term; chain copies: 2; label: uniform 32P
T3 sequence: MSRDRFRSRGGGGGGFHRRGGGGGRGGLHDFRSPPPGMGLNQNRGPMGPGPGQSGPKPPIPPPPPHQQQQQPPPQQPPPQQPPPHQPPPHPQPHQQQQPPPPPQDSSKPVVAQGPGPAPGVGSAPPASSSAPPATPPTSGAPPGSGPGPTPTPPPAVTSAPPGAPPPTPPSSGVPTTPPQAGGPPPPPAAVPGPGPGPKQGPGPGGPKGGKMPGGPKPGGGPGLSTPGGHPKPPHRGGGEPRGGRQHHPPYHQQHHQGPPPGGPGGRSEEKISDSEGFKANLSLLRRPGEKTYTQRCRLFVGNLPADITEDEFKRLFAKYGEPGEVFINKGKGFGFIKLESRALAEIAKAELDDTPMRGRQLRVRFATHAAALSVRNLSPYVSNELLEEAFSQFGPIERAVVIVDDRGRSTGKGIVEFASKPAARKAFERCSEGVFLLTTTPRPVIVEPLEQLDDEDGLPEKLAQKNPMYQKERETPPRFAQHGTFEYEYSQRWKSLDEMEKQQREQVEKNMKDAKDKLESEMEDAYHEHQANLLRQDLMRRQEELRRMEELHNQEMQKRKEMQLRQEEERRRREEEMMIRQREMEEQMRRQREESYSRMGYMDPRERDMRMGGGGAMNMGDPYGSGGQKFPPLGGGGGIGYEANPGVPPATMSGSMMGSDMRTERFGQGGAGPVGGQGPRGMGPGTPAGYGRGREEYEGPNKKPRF

PSF minRRMs = biological target: T4, PSF minRRMs (human, UniProt P23246 299-449); experiment: UV crosslinking competition; GST-TRAP150 PID (686-755), no inhibition; UV crosslinking: 12 mM Tris pH 7.5, 120 mM NaCl, 3 mM MgCl2, 1 mM ATP, 20 mM phosphocreatine, 0.1 mM EDTA, 12% glycerol, 1.3% PVA, 25 ng/ul yeast tRNA, 20 ng/ul; details: protein: recombinant; tags: 6xHis-FLAG N-term; label: uniform 32P
T4 sequence: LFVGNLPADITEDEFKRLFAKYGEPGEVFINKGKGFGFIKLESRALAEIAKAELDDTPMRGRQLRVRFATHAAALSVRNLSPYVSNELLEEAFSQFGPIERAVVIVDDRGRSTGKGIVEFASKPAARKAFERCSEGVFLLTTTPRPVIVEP

hnRNP L = biological target: T5, hnRNP L (UniProt P14866 1-589); experiment: as above; details: protein: recombinant; tags: 6xHis; label: uniform 32P
T5 sequence: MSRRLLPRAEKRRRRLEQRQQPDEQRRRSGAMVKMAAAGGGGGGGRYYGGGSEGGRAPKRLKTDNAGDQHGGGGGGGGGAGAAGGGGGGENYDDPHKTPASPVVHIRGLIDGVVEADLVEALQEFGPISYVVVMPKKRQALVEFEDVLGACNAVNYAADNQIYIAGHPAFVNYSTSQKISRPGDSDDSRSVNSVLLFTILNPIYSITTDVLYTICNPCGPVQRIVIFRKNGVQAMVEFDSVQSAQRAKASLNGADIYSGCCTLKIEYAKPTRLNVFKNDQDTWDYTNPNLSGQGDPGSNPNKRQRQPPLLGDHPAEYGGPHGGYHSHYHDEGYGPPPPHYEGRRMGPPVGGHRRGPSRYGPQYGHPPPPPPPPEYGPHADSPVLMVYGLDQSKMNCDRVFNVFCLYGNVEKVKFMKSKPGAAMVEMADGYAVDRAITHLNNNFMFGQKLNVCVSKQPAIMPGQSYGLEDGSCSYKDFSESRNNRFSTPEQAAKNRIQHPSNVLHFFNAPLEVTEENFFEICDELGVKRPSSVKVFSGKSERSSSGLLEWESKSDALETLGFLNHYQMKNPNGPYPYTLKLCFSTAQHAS

Measured: binding result

B1: ESS1 (ssRNA)
RNA: ACGCGUCCACUUUCAAGUGACCCCUUACCUACUCACACCACUGCAUUCUCACCCGCAAGCACCUUUGACGCGU
binds: PSF exRRMs | PSF exRRM2 | PSF full-length (PSF-FL) | PSF minRRMs | hnRNP L

Reference: article PMC4605305, “TRAP150 interacts with the RNA-binding domain of PSF and antagonizes splicing of numerous PSF-target genes in T cells” (Nucleic Acids Research, 2015)
